Reference: patent US20260242735A1 (UNIVERSIT T BASEL, published 2026)

Columns and labels:
human CD33 R225A = human CD33 R225A (human, UniProt P20138 18-364); test: alanine scan, flow cytometry;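 note: HEK293-T cells transiently expressing single-residue alanine mutants of CD33 (alanine swapped to serine), antibody binding read by fluorescence in duplicate, background-subtracted, expressed relative to wild-type CD33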
human CD33 N209A = human CD33 N209A (human, UniProt P20138 18-364); test: alanine scan, flow cytometry;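 note: HEK293-T cells transiently expressing single-residue alanine mutants of CD33 (alanine swapped to serine), antibody binding read by fluorescence in duplicate, background-subtracted, expressed relative to wild-type CD33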
Sequence of human CD33 N209A (P20138 18-364 N209A limits assumed): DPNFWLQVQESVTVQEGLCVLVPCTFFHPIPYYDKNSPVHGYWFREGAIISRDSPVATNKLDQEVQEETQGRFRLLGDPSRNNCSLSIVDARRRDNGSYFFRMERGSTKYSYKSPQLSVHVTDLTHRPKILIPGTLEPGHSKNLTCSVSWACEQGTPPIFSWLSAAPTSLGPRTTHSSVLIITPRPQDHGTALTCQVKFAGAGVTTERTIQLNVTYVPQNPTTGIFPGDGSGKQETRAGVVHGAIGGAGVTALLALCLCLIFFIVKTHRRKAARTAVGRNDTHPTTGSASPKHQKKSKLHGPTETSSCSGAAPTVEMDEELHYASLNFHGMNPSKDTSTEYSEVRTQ

human CD33 G256A = human CD33 G256A (human, UniProt P20138 18-364); test: alanine scan, flow cytometry;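 note: HEK293-T cells transiently expressing single-residue alanine mutants of CD33 (alanine swapped to serine), antibody binding read by fluorescence in duplicate, background-subtracted, expressed relative to wild-type CD33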
Sequence of human CD33 G256A (P20138 18-364 G256A limits assumed): as the sequence (P20138 18-364 N209A limits assumed) above, with A192N, G239A counted along it

human CD33 V258A = human CD33 V258A (human, UniProt P20138 18-364); test: alanine scan, flow cytometry;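 note: HEK293-T cells transiently expressing single-residue alanine mutants of CD33 (alanine swapped to serine), antibody binding read by fluorescence in duplicate, background-subtracted, expressed relative to wild-type CD33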
human CD33 I198A = biological target: T1, human CD33 I198A (human, UniProt P20138 18-364); test: alanine scan, flow cytometry
T1 construct: the leading token is not explained

human CD33 R254A = human CD33 R254A (human, UniProt P20138 18-364); test: alanine scan, flow cytometry
Sequence of human CD33 R254A (P20138 18-364 R254A limits assumed): as the sequence (P20138 18-364 N209A limits assumed) above, with A192N, R237A counted along it

human CD33 T240A = human CD33 T240A (human, UniProt P20138 18-364); test: alanine scan, flow cytometry
human CD33 Q204A = human CD33 Q204A (human, UniProt P20138 18-364); test: alanine scan, flow cytometry
Sequence of human CD33 Q204A (P20138 18-364 Q204A limits assumed): as the sequence (P20138 18-364 N209A limits assumed) above, with Q187A, A192N counted along it

human CD33 Q251A = human CD33 Q251A (human, UniProt P20138 18-364); test: alanine scan, flow cytometry
Sequence of human CD33 Q251A (P20138 18-364 Q251A limits assumed): as the sequence (P20138 18-364 N209A limits assumed) above, with A192N, Q234A counted along it

human CD33 A219S = human CD33 A219S (human, UniProt P20138 18-364); test: alanine scan, flow cytometry
human CD33 V267A = human CD33 V267A (human, UniProt P20138 18-364); test: alanine scan, flow cytometry
Sequence of human CD33 V267A (P20138 18-364 V267A limits assumed): as the sequence (P20138 18-364 N209A limits assumed) above, with A192N, V250A counted along it

human CD33 K215A = human CD33 K215A (human, UniProt P20138 18-364); test: alanine scan, flow cytometry
Sequence of human CD33 K215A (P20138 18-364 K215A limits assumed): as the sequence (P20138 18-364 N209A limits assumed) above, with A192N, K198A counted along it

human CD33 Y233A = human CD33 Y233A (human, UniProt P20138 18-364); test: alanine scan, flow cytometry
human CD33 D205A = human CD33 D205A (human, UniProt P20138 18-364); test: alanine scan, flow cytometry
Sequence of human CD33 D205A (P20138 18-364 D205A limits assumed): as the sequence (P20138 18-364 N209A limits assumed) above, with D188A, A192N counted along it

human CD33 G249A = human CD33 G249A (human, UniProt P20138 18-364); test: alanine scan, flow cytometry
human CD33 V234A = human CD33 V234A (human, UniProt P20138 18-364); test: alanine scan, flow cytometry
Sequence of human CD33 V234A (P20138 18-364 V234A limits assumed): as the sequence (P20138 18-364 N209A limits assumed) above, with A192N, V217A counted along it

human CD33 G264A = human CD33 G264A (human, UniProt P20138 18-364); test: alanine scan, flow cytometry
human CD33 T268A = human CD33 T268A (human, UniProt P20138 18-364); test: alanine scan, flow cytometry
Sequence of human CD33 T268A (P20138 18-364 T268A limits assumed): as the sequence (P20138 18-364 N209A limits assumed) above, with A192N, T251A counted along it

human CD33 H259A = human CD33 H259A (human, UniProt P20138 18-364); test: alanine scan, flow cytometry
human CD33 Q236A = human CD33 Q236A (human, UniProt P20138 18-364); test: alanine scan, flow cytometry
human CD33 T208A = human CD33 T208A (human, UniProt P20138 18-364); test: alanine scan, flow cytometry
human CD33 G245A = human CD33 G245A (human, UniProt P20138 18-364); test: alanine scan, flow cytometry
human CD33 T232A = human CD33 T232A (human, UniProt P20138 18-364); test: alanine scan, flow cytometry
human CD33 G207A = human CD33 G207A (human, UniProt P20138 18-364); test: alanine scan, flow cytometry
Sequence of human CD33 G207A (P20138 18-364 G207A limits assumed): as the sequence (P20138 18-364 N209A limits assumed) above, with G190A, A192N counted along it

human CD33 T239A = human CD33 T239A (human, UniProt P20138 18-364); test: alanine scan, flow cytometry
human CD33 D246A = human CD33 D246A (human, UniProt P20138 18-364); test: alanine scan, flow cytometry
human CD33 A261S = human CD33 A261S (human, UniProt P20138 18-364); test: alanine scan, flow cytometry
human CD33 I242A = human CD33 I242A (human, UniProt P20138 18-364); test: alanine scan, flow cytometry
human CD33 L229A = human CD33 L229A (human, UniProt P20138 18-364); test: alanine scan, flow cytometry
human CD33 V196A = human CD33 V196A (human, UniProt P20138 18-364); test: alanine scan, flow cytometry
human CD33 A269S = human CD33 A269S (human, UniProt P20138 18-364); test: alanine scan, flow cytometry
Sequence of human CD33 A269S (P20138 18-364 A269S limits assumed): as the sequence (P20138 18-364 N209A limits assumed) above, with A192N, A252S counted along it

human CD33 I199A = human CD33 I199A (human, UniProt P20138 18-364); test: alanine scan, flow cytometry
human CD33 H206A = human CD33 H206A (human, UniProt P20138 18-364); test: alanine scan, flow cytometry
human CD33 T253A = human CD33 T253A (human, UniProt P20138 18-364); test: alanine scan, flow cytometry
human CD33 V214A = human CD33 V214A (human, UniProt P20138 18-364); test: alanine scan, flow cytometry
human CD33 F216A = human CD33 F216A (human, UniProt P20138 18-364); test: alanine scan, flow cytometry
Sequence of human CD33 F216A (P20138 18-364 F216A limits assumed): as the sequence (P20138 18-364 N209A limits assumed) above, with A192N, F199A counted along it

human CD33 P46I = human CD33 P46I (human, UniProt P20138 18-364); test: flow cytometry on transfected cells, IgG
Procedure: (§1) An alanine scan on human CD33 was performed to the determine the residues on CD33 that are involved in binding to the antibodies investigated. […] Briefly, a mutation library of CD33 was created by high-throughput, site-directed mutagenesis. Each residue was individually mutated to alanine, with alanine codons mutated to serine. The mutant library was arrayed in 384-well microplates and transiently transfected into HEK293-T. Following transfection, cells were incubated with the indicated antibodies (IgG or Fab) at concentrations pre-determined using an independent immunofluorescence titration curve on wild type CD33. […] Binding of each antibody to each mutant clone was determined in duplicates. For each point, background fluorescence was subtracted from the raw data, which were then normalized to antibody reactivity with wild type CD33.
(§2) Antibodies were screened for binding to the human CD33 variants in IgG format. […] For each mutation, background fluorescence was subtracted from the raw data, which were then normalized to antibody reactivity with wild-type CD33.

human CD33 P48H = human CD33 P48H (human, UniProt P20138 18-364); test: flow cytometry on transfected cells, IgG
Procedure: as §1, §2

human CD33 Y49P = human CD33 Y49P (human, UniProt P20138 18-364); test: flow cytometry on transfected cells, IgG
Sequence of human CD33 Y49P (P20138 18-364 Y49P limits assumed): as the sequence (P20138 18-364 N209A limits assumed) above, with Y32P, A192N counted along it
Procedure: as §1, §2

human CD33 P48S = human CD33 P48S (human, UniProt P20138 18-364); test: flow cytometry on transfected cells, IgG
Procedure: as §1, §2

Row | Mean % WT Binding (human CD33 R225A) [% WT binding] | Mean % WT Binding (human CD33 N209A) [% WT binding] | Mean % WT Binding (human CD33 G256A) [% WT binding] | Mean % WT Binding (human CD33 V258A) [% WT binding] | Mean % WT Binding (human CD33 I198A) [% WT binding] | Mean % WT Binding (human CD33 R254A) [% WT binding] | Mean % WT Binding (human CD33 T240A) [% WT binding] | Mean % WT Binding (human CD33 Q204A) [% WT binding] | Mean % WT Binding (human CD33 Q251A) [% WT binding] | Mean % WT Binding (human CD33 A219S) [% WT binding] | Mean % WT Binding (human CD33 V267A) [% WT binding] | Mean % WT Binding (human CD33 K215A) [% WT binding] | Mean % WT Binding (human CD33 Y233A) [% WT binding] | Mean % WT Binding (human CD33 D205A) [% WT binding] | Mean % WT Binding (human CD33 G249A) [% WT binding] | Mean % WT Binding (human CD33 V234A) [% WT binding] | Mean % WT Binding (human CD33 G264A) [% WT binding] | Mean % WT Binding (human CD33 T268A) [% WT binding] | Mean % WT Binding (human CD33 H259A) [% WT binding] | Mean % WT Binding (human CD33 Q236A) [% WT binding] | Binder | other results
1 | 104 | 101 | 108 | 95.9 | 89.3 | 95.7 | 97 | 108 | 126 | 92 | 101 | 85.6 | 103 | 3.1 | 96.6 | 109 | 103 | 100 | 86.4 | 103 | Refmab #6 (antibody, V domains shown, Full-length format is human IgG1 Fc silent (PG-LALA); also made as Fab; The alanine scan used IgG or Fab) VH: QVQLQQPGAEVVKPGASVKMSCKASGYTFTSYYIHWIKQTPGQGLEWVGVIYPGNDDISYNQKFQGKATLTADKSSTTAYMQLSSLTSEDSAVYYCAREVRLRYFDVWGQGTTVTVSS VL: EIVLTQSPGSLAVSPGERVTMSCKSSQSVFFSSSQKNYLAWYQQIPGQSPRLLIYWASTRESGVPDRFTGSGSGTDFTLTISSVQPEDLAIYYCHQYLSSRTFGQGTKLEIK | Mean % WT Binding (human CD33 T208A): 116 % WT binding; Mean % WT Binding (human CD33 G245A): 91.8 % WT binding; Mean % WT Binding (human CD33 T232A): 79.6 % WT binding; Mean % WT Binding (human CD33 G207A): 98.6 % WT binding; Mean % WT Binding (human CD33 T239A): 87.3 % WT binding; Mean % WT Binding (human CD33 D246A): 106 % WT binding; Mean % WT Binding (human CD33 A261S): 56.7 % WT binding; Mean % WT Binding (human CD33 I242A): 99 % WT binding; Mean % WT Binding (human CD33 L229A): 97.1 % WT binding; Mean % WT Binding (human CD33 V196A): 116 % WT binding; Mean % WT Binding (human CD33 A269S): 93.9 % WT binding; Mean % WT Binding (human CD33 I199A): 106 % WT binding; Mean % WT Binding (human CD33 H206A): 98.3 % WT binding; Mean % WT Binding (human CD33 T253A): 96.8 % WT binding; Mean % WT Binding (human CD33 V214A): 94.4 % WT binding; Mean % WT Binding (human CD33 F216A): 82.5 % WT binding
2 | – | – | – | – | – | – | – | – | – | – | – | – | – | – | – | – | – | – | – | – | Refmab #6 (antibody, human IgG1, V domains shown) VH: QVQLQQPGAEVVKPGASVKMSCKASGYTFTSYYIHWIKQTPGQGLEWVGVIYPGNDDISYNQKFQGKATLTADKSSTTAYMQLSSLTSEDSAVYYCAREVRLRYFDVWGQGTTVTVSS VL: EIVLTQSPGSLAVSPGERVTMSCKSSQSVFFSSSQKNYLAWYQQIPGQSPRLLIYWASTRESGVPDRFTGSGSGTDFTLTISSVQPEDLAIYYCHQYLSSRTFGQGTKLEIK | Mean % WT Binding (human CD33 P46I): 98.5 % WT binding; Mean % WT Binding (human CD33 P48H): 94.4 % WT binding; Mean % WT Binding (human CD33 Y49P): 117 % WT binding; Mean % WT Binding (human CD33 P48S): 97.2 % WT binding
3 | 124 | 88.1 | 87.6 | 95.9 | 84.7 | 94.7 | 96.9 | 103 | 94.7 | 93.7 | 95.2 | 103 | 89.5 | 12.3 | 105 | 115 | 94.4 | 84.7 | 94.5 | 100 | Refmab #5 (antibody, V domains shown, Full-length format is human IgG1 Fc silent (PG-LALA); also made as Fab; The alanine scan used IgG or Fab) VH: QVQLVQSGAEVKKPGASVKVSCKASGYTFTNYDINWVRQAPGQGLEWIGWIYPGDGSTKYNEKFKAKATLTADTSTSTAYMELRSLRSDDTAVYYCASGYEDAMDYWGQGTTVTVSS VL: DIQMTQSPSSLSASVGDRVTINCKASQDINSYLSWFQQKPGKAPKTLIYRANRLVDGVPSRFSGSGSGQDYTLTISSLQPEDFATYYCLQYDEFPLTFGGGTKVEIK | Mean % WT Binding (human CD33 T208A): 100 % WT binding; Mean % WT Binding (human CD33 G245A): 110 % WT binding; Mean % WT Binding (human CD33 T232A): 81.5 % WT binding; Mean % WT Binding (human CD33 G207A): 109 % WT binding; Mean % WT Binding (human CD33 T239A): 107 % WT binding; Mean % WT Binding (human CD33 D246A): 115 % WT binding; Mean % WT Binding (human CD33 A261S): 79.8 % WT binding; Mean % WT Binding (human CD33 I242A): 81.8 % WT binding; Mean % WT Binding (human CD33 L229A): 106 % WT binding; Mean % WT Binding (human CD33 V196A): 84.5 % WT binding; Mean % WT Binding (human CD33 A269S): 124 % WT binding; Mean % WT Binding (human CD33 I199A): 132 % WT binding; Mean % WT Binding (human CD33 H206A): 108 % WT binding; Mean % WT Binding (human CD33 T253A): 94.6 % WT binding; Mean % WT Binding (human CD33 V214A): 127 % WT binding; Mean % WT Binding (human CD33 F216A): 104 % WT binding
4 | – | – | – | – | – | – | – | – | – | – | – | – | – | – | – | – | – | – | – | – | Refmab #5 (antibody, human IgG1, V domains shown) VH: QVQLVQSGAEVKKPGASVKVSCKASGYTFTNYDINWVRQAPGQGLEWIGWIYPGDGSTKYNEKFKAKATLTADTSTSTAYMELRSLRSDDTAVYYCASGYEDAMDYWGQGTTVTVSS VL: DIQMTQSPSSLSASVGDRVTINCKASQDINSYLSWFQQKPGKAPKTLIYRANRLVDGVPSRFSGSGSGQDYTLTISSLQPEDFATYYCLQYDEFPLTFGGGTKVEIK | Mean % WT Binding (human CD33 P46I): 100 % WT binding; Mean % WT Binding (human CD33 P48H): 7.4 % WT binding; Mean % WT Binding (human CD33 Y49P): 2.2 % WT binding; Mean % WT Binding (human CD33 P48S): 43 % WT binding
